In patent publication US20080171347A1:

Biological target: mouse synaptosomes (synaptosome preparation carrying the BoNT/A acceptor complex)

## active botulinum neurotoxin type A (BoNT/A) (from UniProt P0DPI1 2-1296)
  percent inhibition (maximum at plateau): 78%
